Columns and labels:
HLA-B*58:01 = test: IEDB peptide-MHC binding, purified MHC/direct/fluorescence; filed as Kd, often an IC50 or EC50 that approximates it; ≥ and ≤ were set here for values at or beyond the usual limits of such assays
HLA-B*73:01 = test: as above; settings: source organism: Giardia lamblia ATCC 50803
HLA-A*69:01 = test: as above
HLA-A*01:01 = test: as above
HLA-A*03:01 = test: as above; settings: source organism: Giardia lamblia ATCC 50803
HLA-B*15:01 [1] = test: as above; settings: source organism: Giardia lamblia ATCC 50803
HLA-B*07:02 = test: as above
HLA-B*44:02 = test: as above; settings: source organism: Giardia lamblia ATCC 50803
HLA-A*11:01 [2] = test: as above; settings: source organism: Giardia lamblia ATCC 50803
HLA-A*30:01 = test: as above; settings: source organism: Giardia lamblia ATCC 50803
HLA-A*02:01 [3] = test: as above; settings: source organism: Giardia lamblia ATCC 50803
HLA-A*26:01 = test: as above
HLA-B*40:01 = test: as above; settings: source organism: Giardia lamblia ATCC 50803
HLA-A*31:01 = test: as above
HLA-B*08:01 = test: as above
HLA-B*27:05 = test: as above; settings: source organism: Giardia lamblia ATCC 50803
HLA-B*83:01 = test: IEDB peptide-MHC binding, purified MHC/competitive/fluorescence; filed as Kd, often an IC50 or EC50 that approximates it; ≥ and ≤ were set here for values at or beyond the usual limits of such assays; settings: source organism: Homo sapiens
HLA-B*15:42 = test: as above; settings: source organism: Homo sapiens
HLA-B*40:13 = test: as above; settings: source organism: Homo sapiens
HLA-A*68:23 = test: as above; settings: source organism: Homo sapiens
HLA-A*32:15 = test: as above; settings: source organism: Homo sapiens
HLA-B*45:06 = test: as above; settings: source organism: Homo sapiens
HLA-A*32:07 = test: as above; settings: source organism: Homo sapiens
HLA-C*06:02 [4] = test: as above; settings: source organism: Homo sapiens
HLA-C*07:02 = test: IEDB peptide-MHC binding, purified MHC/direct/fluorescence; filed as Kd, often an IC50 or EC50 that approximates it; ≥ and ≤ were set here for values at or beyond the usual limits of such assays; settings: source organism: Homo sapiens
HLA-C*05:01 = test: as above; settings: source organism: Homo sapiens
HLA-B*51:01 = test: as above; settings: source organism: Homo sapiens
HLA-B*15:17 = test: IEDB peptide-MHC binding, purified MHC/competitive/fluorescence; filed as Kd, often an IC50 or EC50 that approximates it; ≥ and ≤ were set here for values at or beyond the usual limits of such assays; settings: source organism: Brucella abortus S19
HLA-B*15:01 [5] = test: as above; settings: source organism: Brucella abortus S19
HLA-A*02:03 = test: as above; settings: source organism: Brucella abortus S19
HLA-B*18:01 = test: as above; settings: source organism: Brucella abortus S19
HLA-A*11:01 [6] = test: as above; settings: source organism: Brucella abortus S19
HLA-A*02:01 [7] = test: as above; settings: source organism: Brucella abortus S19
HLA-A*68:02 = test: as above; settings: source organism: Brucella abortus S19
HLA-A*02:06 = test: as above; settings: source organism: Brucella abortus S19
HLA-A*26:02 = test: as above; settings: source organism: Brucella abortus S19
HLA-B*15:09 = test: IEDB peptide-MHC binding, purified MHC/direct/fluorescence; filed as Kd, often an IC50 or EC50 that approximates it; ≥ and ≤ were set here for values at or beyond the usual limits of such assays; settings: source organism: Brucella suis 1330
HLA-C*14:02 = test: as above; settings: source organism: Brucella abortus S19
HLA-B*39:01 = test: as above; settings: source organism: Brucella suis 1330
HLA-B*08:03 = test: as above; settings: source organism: Brucella suis 1330
HLA-C*15:02 = test: as above; settings: source organism: Brucella abortus S19
HLA-A*24:03 = test: as above
HLA-C*06:02 [8] = test: as above; settings: source organism: Brucella abortus S19
HLA-A*23:01 = test: as above; settings: source organism: Brucella abortus 2308
HLA-B*57:01 = test: as above; settings: source organism: Brucella abortus 2308
HLA-C*04:01 = test: as above; settings: source organism: Nostoc punctiforme PCC 73102
[9] = source organism: Giardia lamblia ATCC 50803
[10] = source organism: Brucella abortus 2308
[11] = source organism: Brucella suis 1330

IRNLVKRYK was tested, and the Kd (HLA-B*58:01; [9]) was ≥ 20 µM, the Kd (HLA-B*73:01) was 3.5 µM and the Kd (HLA-A*69:01; [9]) was ≥ 20 µM. The Kd (HLA-A*01:01; [9]) was ≥ 20 µM, the Kd (HLA-A*03:01) was ≥ 20 µM and the Kd (HLA-B*15:01 [1]) was ≥ 20 µM. The Kd (HLA-B*07:02; [9]) was ≥ 20 µM, the Kd (HLA-B*44:02) was ≥ 20 µM and the Kd (HLA-A*11:01 [2]) was ≥ 20 µM. The Kd (HLA-A*30:01) was 0.0508 µM, the Kd (HLA-A*02:01 [3]) was ≥ 20 µM and the Kd (HLA-A*26:01; [9]) was ≥ 20 µM. The Kd (HLA-B*40:01) was ≥ 20 µM, the Kd (HLA-A*31:01; [9]) was ≥ 20 µM and the Kd (HLA-B*08:01; [9]) was ≥ 20 µM. For the same sequence, the Kd (HLA-B*27:05) was 1.21 µM.
For MAMGILHTI, the Kd (HLA-B*83:01) was 3.6 µM, the Kd (HLA-B*15:42) was ≥ 5 µM and the Kd (HLA-B*40:13) was 0.213 µM. For the same sequence, the Kd (HLA-A*68:23) was 0.0065 µM, the Kd (HLA-A*32:15) was 0.0202 µM and the Kd (HLA-B*45:06) was ≥ 5 µM. For the same sequence, the Kd (HLA-A*32:07) was 0.0047 µM, the Kd (HLA-C*06:02 [4]) was 1.78 µM and the Kd (HLA-C*07:02) was 3.31 µM. For the same sequence, the Kd (HLA-C*05:01) was ≥ 20 µM and the Kd (HLA-B*51:01) was 0.168 µM.
YWMGGTTYF showed a Kd (HLA-B*15:17) of 1.02 µM, a Kd (HLA-B*15:01 [5]) of 1.04 µM and a Kd (HLA-A*02:03) of 4.23 µM. For the same sequence, the Kd (HLA-B*18:01) was ≥ 20 µM, the Kd (HLA-A*11:01 [6]) was 2.07 µM and the Kd (HLA-A*02:01 [7]) was 1.12 µM. For the same sequence, the Kd (HLA-A*68:02) was ≥ 20 µM, the Kd (HLA-A*02:06) was 0.797 µM and the Kd (HLA-A*26:02) was ≥ 20 µM. The Kd (HLA-B*15:09) was ≥ 20 µM, the Kd (HLA-C*14:02) was ≤ 0.001 µM and the Kd (HLA-B*58:01; [10]) was ≥ 20 µM. For the same sequence, the Kd (HLA-A*69:01; [10]) was ≥ 20 µM, the Kd (HLA-B*39:01) was ≥ 20 µM and the Kd (HLA-A*01:01; [10]) was ≥ 20 µM. The Kd (HLA-B*08:03) was ≥ 20 µM, the Kd (HLA-B*07:02; [10]) was ≥ 20 µM and the Kd (HLA-C*15:02) was ≥ 20 µM. The Kd (HLA-A*24:03; [10]) was ≤ 0.001 µM, the Kd (HLA-C*06:02 [8]) was ≥ 20 µM and the Kd (HLA-A*26:01; [11]) was ≥ 20 µM. The Kd (HLA-A*31:01; [10]) was ≥ 20 µM, the Kd (HLA-A*23:01) was 0.0535 µM and the Kd (HLA-B*08:01; [11]) was ≥ 20 µM. For the same sequence, the Kd (HLA-B*57:01) was ≥ 20 µM.
In the case of YWPTEGYEF, the Kd (HLA-C*04:01) is reported as 0.222 µM and the Kd (HLA-A*24:03; source organism: Escherichia coli O157:H7) is reported as ≤ 0.001 µM.
